Data as given in PMC7566517, “Long-acting antibody ligand mimetics for HER4-selective agonism” (Scientific Reports, 2020).

target: T1, recombinant human HER4 ECD, biotinylated (human, UniProt Q15303 26-651, biotinylated (site not stated)); assay: BLI; Octet 384; biotinylated HER4 or HER3 at 1 μg/mL captured on streptavidin biosensors; PBS pH 7.4, 3 mg/mL BSA, 0.05% Tween 20; serial dilutions of the variants; steady-state fit; details: both partners purified
T1 construct: human epidermal growth factor receptor family member 4 (HER4, ErbB4), extracellular domain; Captured on streptavidin biosensors by its biotin; also called ErbB4; source: in-house purified recombinant
T1 sequence (looked up): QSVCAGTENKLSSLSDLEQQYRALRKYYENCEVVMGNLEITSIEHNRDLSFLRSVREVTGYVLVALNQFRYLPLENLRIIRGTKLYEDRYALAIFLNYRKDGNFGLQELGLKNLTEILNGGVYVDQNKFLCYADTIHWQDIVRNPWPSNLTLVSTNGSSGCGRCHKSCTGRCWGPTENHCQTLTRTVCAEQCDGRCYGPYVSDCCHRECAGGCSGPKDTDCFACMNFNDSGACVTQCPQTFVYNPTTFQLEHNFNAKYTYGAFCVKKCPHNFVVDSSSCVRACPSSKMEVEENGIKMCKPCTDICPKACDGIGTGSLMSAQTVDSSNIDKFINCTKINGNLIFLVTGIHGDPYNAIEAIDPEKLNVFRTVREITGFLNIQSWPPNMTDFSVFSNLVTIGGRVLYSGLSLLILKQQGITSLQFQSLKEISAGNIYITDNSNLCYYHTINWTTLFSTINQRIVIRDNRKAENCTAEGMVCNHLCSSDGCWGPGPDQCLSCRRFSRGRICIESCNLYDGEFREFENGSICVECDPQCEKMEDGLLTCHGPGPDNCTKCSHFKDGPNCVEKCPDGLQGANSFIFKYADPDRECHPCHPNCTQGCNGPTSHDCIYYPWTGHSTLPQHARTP

| Binder | Kd [nM] |
| --- | --- |
| NRG1-MFc fusion protein (NRG1 EGF domain fused with monomeric Fc) (Fc fusion, human, neuregulin-1 beta (NRG1b) EGF domain, about 60 amino acids; numbers count on: the EGF domain (His2, Cys45); also called neuregulin-MFc; parental clone; source: HEK293FT, transient transfection, purified (protein A); not shown: monomeric Fc (MFc C4)) GTSHLVKCAEKEKTFCVNGGECFMVKDLSNPSRYLCKCPNEFTGDRCQNYVMASF | 640 |
| ALM3 (antibody ligand mimetic 3) (antibody) chain 1: not shown chain 2: EIVLTQSPGTLSLSPGERATFSCRSSHSIRSRRVAWYQHKPGQAPRLVIHGVSNRASGISDRFSGSGSGTDFTLTITRVEPEDFALYYCQVYGASSYTFGQGTKLERKRTVAAPSVFIFPPSDEQLKSGTASVVCLLNNFYPREAKVQWKVDNALQSGNSQESVTEQDSKDSTYSLSSTLTLSKADYEKHKVYACEVTHQGLRSPVTKSFNRGEC | > 10000 |
| ALM4 (antibody ligand mimetic 4) (antibody) chain 1: not shown chain 2: EIVLTQSPGTLSLSPGERATFSCRSSHSIRSRRVAWYQHKPGQAPRLVIHGVSNRASGISDRFSGSGSGTDFTLTITRVEPEDFALYYCQVYGASSYTFGQGTKLERKRTVAAPSVFIFPPSDEQLKSGTASVVCLLNNFYPREAKVQWKVDNALQSGNSQESVTEQDSKDSTYSLSSTLTLSKADYEKHKVYACEVTHQGLRSPVTKSFNRGEC | 5600 |
| NRG1 fused with human serum albumin (ligand, UniProt Q02297-6 177-236, looked up, neuregulin 1 (NRG1) fused with HSA, control protein; Control protein; also called NRG1-HSA) SHLVKCAEKEKTFCVNGGECFMVKDLSNPSRYLCKCPNEFTGDRCQNYVMASFYKHLGIE | 460 |
